This test addresses immobilized trimeric proteins. Kind of test: SPR; reverse set-up: JR-FL gp120 (900 RU), JR-FL FD gp145 (1400 RU), SF162 FD gp145 (900 RU) or Soc-V1V2JR-FL amine-coupled to CM5 chips; Siglec-1 injected in 10 mM HEPES, 150 mM NaCl pH 7.4, 30 µl/min; some runs with 50 nM Siglec-1 and lactose, 6'-sialyllactose or sialic acid.

“Siglec-1 (recombinant protein used for SPR) (from UniProt Q9BZZ2 20-1709) (receptor)” showed a fold less affinity than trimeric proteins on immobilized Siglec-1 of 10 to 20 fold.
